Biological target: Na+,HCO3- co-transporter NBCn1 (SLC4A7), native in MDCK-II cells (canine (endogenous in MDCK-II))
Test: proximity ligation; in situ PLA (Duolink II) with primary antibodies against NBCn1 and RACK1 in fixed non-confluent (60-70% confluency) MDCK-II or MCF-7 cells; control with only NBCn1 antibody

## RACK1, native in MDCK-II cells (natural protein)
  PLA signal, fold above the control with only NBCn1 antibody: 8 fold
